The values below come from patent US20240279288A1, “APPLICATION OF PLANT JAZ PROTEINS AND DERIVED POLYPEPTIDES IN PREVENTION AND TREATMENT OF HUMAN AND ANIMAL TUMORS” (ANYANG INSTITUTE OF SINO-COTTON INDUSTRY INNOVATION, priority 2021, published 2024).

The subject of one assay is MCF7 breast cancer cells. In words: Cell cycle detection (PI DNA content), MCF7. To be noted: 0.691 μM, 24 h, vs PBS. The class given is cell-based, human. On the procedure:
Cell cycle detection: cells were moderately digested by trypsin, and collected by centrifugation with supernatant removed, and then cells were washed with PBS, and collected by centrifugation at 1,500 rpm for 5 minutes to prepare a single-cell suspension (at a concentration of 1×10^6/ml). 1 ml of single-cell suspension was then taken and centrifuged with the supernatant discarded, and then 500 μl of 70% pre-cooled ethanol were added to fix the cells overnight at 4° C. The next day, cells were collected by centrifugation, resuspended with 1 ml of PBS and centrifuged, and then 100 μl of RNase A solution were added to the cell pellet, followed by placement in water bath at 37° C. for 30 min, and then 400 μl of PI staining solution was added and mixed well, followed by incubation at 4° C. in dark for 30 min and detection on the instrument to record under red fluorescence at the excitation wavelength of 488 nm. Specifically, a DNA content detection kit (cell cycle) (Solarbio, Cat. No.: CA1510) was used.

The next assay addresses T1, NMYC (Homo sapiens, UniProt P04198).
T1 construct: with the full length of c-Myc and NMYC, respectively; expressed in transfected cells; host or cells: yeast Y2HGold
T1 sequence (P04198 1-464): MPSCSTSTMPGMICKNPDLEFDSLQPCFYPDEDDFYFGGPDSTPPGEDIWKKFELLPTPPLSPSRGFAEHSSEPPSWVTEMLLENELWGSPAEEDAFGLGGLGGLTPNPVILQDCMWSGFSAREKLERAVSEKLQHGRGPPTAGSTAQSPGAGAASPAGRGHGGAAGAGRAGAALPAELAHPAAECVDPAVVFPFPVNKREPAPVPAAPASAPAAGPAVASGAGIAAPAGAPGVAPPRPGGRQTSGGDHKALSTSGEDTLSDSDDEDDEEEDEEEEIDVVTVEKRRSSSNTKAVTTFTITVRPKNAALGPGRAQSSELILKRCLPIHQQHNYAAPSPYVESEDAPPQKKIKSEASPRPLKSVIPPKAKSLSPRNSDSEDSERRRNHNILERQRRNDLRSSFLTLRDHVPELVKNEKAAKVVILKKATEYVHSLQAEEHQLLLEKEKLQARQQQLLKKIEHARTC
Kind of assay: CO-IP with NMYC in HEK293 cells. It is filed as binding. On the procedure:
Steps of method of CO-IP experiment: Non-denaturing lysate was added to 293T cell culture plate (Pricella, Cat. No.: CL-0005), and the cells were completely lysed at 4° C. The lysate was centrifuged at 12,000 rpm for 10 min and the supernatant was collected. The corresponding antibody was added to the obtained non-denatured protein solution, which was incubated overnight at 4° C. Pierce™ protein A/G magnetic agarose (Thermo Fisher Scientific, Inc.) were washed with lysis buffer, followed by addition pre-treated beads to the cell lysate, and incubation at room temperature for 2 hours. The mixture was centrifuged at 4° C., 2,500 rpm for 5 min with supernatant removed, and the agarose beads were washed 5 times with 1 ml of lysis buffer. An appropriate amount of protein loading buffer was added to the pellet, and the sample was incubated in water bath at 100° C. for 10 min. The band of interest was detected by Western blotting.
Immunoprecipitation method (method of the experiment as Example 3) was used.

The next assay deals with T2, c-Myc-215aa (Homo sapiens, UniProt P01106).
T2 construct: expressed in transfected cells
In words: Yeast two hybrid and LUC with c-Myc truncated to first 215 amino acids. It is filed as binding.
Text: […]

T2 sequence (P01106 1-215): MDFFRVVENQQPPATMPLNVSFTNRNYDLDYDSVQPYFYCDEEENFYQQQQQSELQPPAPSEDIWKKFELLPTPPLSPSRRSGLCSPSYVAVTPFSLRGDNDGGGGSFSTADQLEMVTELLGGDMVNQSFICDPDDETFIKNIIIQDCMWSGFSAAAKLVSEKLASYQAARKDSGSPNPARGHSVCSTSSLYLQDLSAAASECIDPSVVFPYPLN

B1: GhJAZ1: cotton JAZ1 protein, gene number Gh_A05G0260, sequence SEQ ID No. 4; prokaryotically expressed with His tag, about 30 KD (protein)
chain: MSSCSESTAMKPARSPEKPSFAQTCNLLSQYLKEKGSFGDLSLGMTCNVEANGTPVVPPPTMNLFPLNDKSDDVCGRNGGNPKNLTSMDLFPQQAGLASKDDSPNKLEPQTAPMTIFYGGQVIVFNDFPANKAKEIMLLASNSSSQSNNSFNPIPFTSSIARSPIESSIGVPPTSKPVHPAQRAVPGDLPIARRASLHRFLEKRKDRITAKAPYQINNSAAAPSLSGDNKSWLGLAAQSP
modifications: His tag
notes: prokaryotically expressed with His tag, about 30 KD
With B1, in the assay with MCF7 breast cancer cells, the “proportion of G2-M phase cells (MCF7)” value is “increase” and the “proportion of S-phase cells (MCF7)” value is “decrease”. Moreover, the “interaction with NMYC” value with NMYC is “interacted”. Moreover, in the assay with c-Myc-215aa, the “interaction with first 215 amino acids truncated c-Myc” value is listed as “strong interactions”.
